{
  "source": "the nanobody polyreactivity screen of Harvey et al. (2022)",
  "data": [
    {"assay": "yeast display, Sf9 membrane polyspecificity reagent, FACS + sequencing; frameworks hold sequencing errors", "summary_of_the_method": "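In a synthetic yeast display library (Saccharomyces cerevisiae BJ5465), nanobody expression was induced with galactose for 36–48 hours. FACS gates were set low and high (top ~1%) using anti-HA fluorescence for expression and streptavidin fluorescence for binding of the Sf9 membrane reagent. Each polyreactivity label is drawn from the gate of origin.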", "values": [
      {"sequence": "QLQLQEGGGGLLQAGGSLRLSCAASGYISYGDVMGWYRQAPGEERELVASIGLDATTNYADSVKGRFTISRDNSKNTVYLQMNSLKPEDTAVYYCPADRGAPFSLHYWGQGTQVTVSS", "polyreactivity (PSR sort gate)": "high polyreactivity"},
      {"sequence": "QLQLQESSGGLVQAGGSMRMTCAASGTIFHFHIMGWYRPAPGKEREFVAAISYGTSTYYADSVKGRFTISRDNAKNTVYLQMNSQKPEDTAVYYCAVYDYLEVYCWYWGQGTQVTVSS", "polyreactivity (PSR sort gate)": "low polyreactivity"},
      {"sequence": "QLQLVDSGGGLVQAGGRLSLSCAASGSIFYRYAMGWYIQAPGKERELVAAITSGGRTYYADSVKGRFTISRDNAKNTVYLQMNSLNPEDTAVYFCNAVYRKTSYGYWGQGTQVTVSS", "polyreactivity (PSR sort gate)": "high polyreactivity"},
      {"sequence": "QLQLVDSGGGLVQAGGSLRLSCAASGRTFRIYAMGWYRKAPGKERELVASITGGGTTNYADSVKGRFTISRDNAKYTVYLQMNSLKPEDTAVYYCAARSRTRPNVPGYGYWGQGTQVTVSS", "polyreactivity (PSR sort gate)": "high polyreactivity"},
      {"sequence": "QLQLVESCGGLFQAGGSLRLSCADSGSTFGDHAMGCYRQAPGKERELVAVITSDTSTYYADSLKWRLTISRDNAKNTVYLQMNSMKPEDTAVYYCAADWGGLWFWYEYWGQGTQVTVSS", "polyreactivity (PSR sort gate)": "low polyreactivity"},
      {"sequence": "QLQLVESCGVLVQAGGSLRLSCAASGRTHGNNAMGCYRQAPGKERELVAITYRGGSTYYADSVKGRFTISRDNAKNTVYLQMNSLKPEDTAVYYCNVDIISKVDTNKYEYWGQGTQVTVSS", "polyreactivity (PSR sort gate)": "low polyreactivity"},
      {"sequence": "QLQLVESGGGLGQAGGRLRLSCAASGSTFGRYAKGCYIQAPGKERELVAAITSDTGNTNFADSVKGRLTISRDNAKNTVYLQMNSLKPEDTAVYYCAAATFWVLWGDVIGNYDSWGQGTQVTVSS", "polyreactivity (PSR sort gate)": "low polyreactivity"},
      {"sequence": "QLQLVESGGGLVQAGGRLRLSCAASGLNFYDNMGWYRQPPGKEREFVAAISSSGGSTSYADSVKGRFTISRDNAKNTVYLQMNSLKPEDRAVYYCAADSYPAYLGFVGFDYWGQGTQVTVSS", "polyreactivity (PSR sort gate)": "low polyreactivity"},
      {"sequence": "QLQLVESGGGLVQAGGRLRLSCAASGRTLGKYAMGWYRQAPGKEREFVAAISSSGSRTFYADSVKGRFTISRDNAKYTVSLQMNSLKPEDTAVYYCAADYYSRGYGYWGQGTQVTVSS", "polyreactivity (PSR sort gate)": "high polyreactivity"},
      {"sequence": "QLQLVESGGGLVQAGGSLPLTCAASGRTFARNAMGWYRQAPGKERELVARISRRAGSTYYADSVKGRFTISRDNAKNTVYLQMNSLKPAETAVYYCNAGPPYSYARDYWGQGTQVTVSS", "polyreactivity (PSR sort gate)": "high polyreactivity"},
      {"sequence": "QLQLVESGGGLVQAGGSLRLSCAANGSTFWIYAMGWYRQAPGKERELVAAITLRSGSTYYADSVKGRFTMSRDNAKNTVYLQMNSLKPEDTAVYYCATDSWGVDRPNYNYWGQGTQVTVSS", "polyreactivity (PSR sort gate)": "low polyreactivity"},
      {"sequence": "QLQLVESGGGLVQAGGSLRLSCAASGFIFSTYAMGWYRQAPGKERELVAAISRSGGSTYYADSVKGRFTISRDNAKNTVYLQMNSLKPEDTAVYYCNLSQAAFRTGYDYWGQGTQVTVSS", "polyreactivity (PSR sort gate)": "high polyreactivity"},
      {"sequence": "QLQLVESGGGLVQAGGSLRLSCAASGFTFGVYAKGWYRQAPGKEREFVAAISWRGGSTYYADSVKGRFTISRDNAKITVYLQMNSLKPEDTAVYYCAADVLERGYGHYNYWGQGTQVTVSS", "polyreactivity (PSR sort gate)": "high polyreactivity"},
      {"sequence": "QLQLVESGGGLVQAGGSLRLSCAASGGIFGYYTMGSYRQAPGKEREFVAAITSRGGSTYYADSVKGRFTISRDTAKNTVYLQMNSLKPEDTAVYYCAARRQRDRYGYWGQGTQVTVSS", "polyreactivity (PSR sort gate)": "high polyreactivity"},
      {"sequence": "QLQLVESGGGLVQAGGSLRLSCAASGHIFDANVMGWSRQAPGKERELVAAISSGGRTKYADSVKGRFTISRDNAKNTVYLQMNSLKPEDTAVYYCAKKHFPLYDYWGQGTQVTVSS", "polyreactivity (PSR sort gate)": "low polyreactivity"},
      {"sequence": "QLQLVESGGGLVQAGGSLRLSCAASGLIFRYYTMGWYRQAPGKERELVATITRGDSTYYADSVKGRFTISRDNAKNTVYLQMNSLKPEDTAVYFCAAAGWSRVGYWLKYDYWGQGTQVTVSS", "polyreactivity (PSR sort gate)": "high polyreactivity"},
      {"sequence": "QLQLVESGGGLVQAGGSLRLSCAASGLIFTTNAMGWYRQAPGKEREFVAAISPSGGSTYYADSVKGRFTISRDNAKNTVYLQMKSLKPEDTAVYYCAKRPYVGYDWGQGTQVTVSS", "polyreactivity (PSR sort gate)": "high polyreactivity"},
      {"sequence": "QLQLVESGGGLVQAGGSLRLSCAASGLTFYSYPMGWYRQARGKERELVATIRSSGGSSYYADSVKGRFTISRDNAKNTVYLQMNSLKPEDTAVYYCAARWGPYAFTYVRTYDYWGHGTQVTVSS", "polyreactivity (PSR sort gate)": "low polyreactivity"},
      {"sequence": "QLQLVESGGGLVQAGGSLRLSCAASGNTFYGYTMGWYRQAPGTERELVAVISSSGGRTNYADSVKGRFTISRDNAKNTVYLQMNSLKPEDTAVYYCAARSSRLPHIYGYWGQGTQVTVSS", "polyreactivity (PSR sort gate)": "low polyreactivity"},
      {"sequence": "QLQLVESGGGLVQAGGSLRLSCAASGRIFGKNDMRSYRQAPGKERELVAAITTSGGSTDYADSVKGRFTISRDKAKNTVYLQMNSLKPEDTAVYYCNAAFQNKAYIRKYKYDYWGQGTQVTVSS", "polyreactivity (PSR sort gate)": "low polyreactivity"},
      {"sequence": "QLQLVESGGGLVQAGGSLRLSCAASGRIFYQTAMGWYRQAPGKERELVADIASGGSTYYADSVKGRFSISRDNAKNTVHLQMNSLKREDTAVDYCATAVLYGDGWYYYWGQGTQVTVSS", "polyreactivity (PSR sort gate)": "low polyreactivity"},
      {"sequence": "QLQLVESGGGLVQAGGSLRLSCAASGRILRYYTMGWYRQAPGKERELVAAISRSGGGTYYADSVKGRFTISRDNANNTVDIEMYSLIPEDTSVYYCAAYKPSPYSSDYDYWGEGTQVTVSS", "polyreactivity (PSR sort gate)": "high polyreactivity"},
      {"sequence": "QLQLVESGGGLVQAGGSLRLSCAASGRTFAIYAMGWYRQAPGKERELVAAIRKRGSITYYADSVKGRFTISRDNAKNTVYLQMNSLKPDATAVYYCAVDYWGQGTQVTVSS", "polyreactivity (PSR sort gate)": "high polyreactivity"},
      {"sequence": "QLQLVESGGGLVQAGGSLRLSCAASGRTFDDYAMGWYRQAPGKERELVAAISGSAGSTYYADSVKGRFTISRDNAKNTVYLQMNSLKPEDTAVYYCARGYGTYPLYYQYLAYYYWGQGTQVTVSS", "polyreactivity (PSR sort gate)": "low polyreactivity"},
      {"sequence": "QLQLVESGGGLVQAGGSLRLSCAASGRTFQGYAMGWYRQAPGKERELVAAISRSGGRTYYADSVKGRFTISRDNAKYTVYLQMNSLKPEDTAVYYCCTEAFRDYGYWGQGTQVTVSS", "polyreactivity (PSR sort gate)": "high polyreactivity"},
      {"sequence": "QLQLVESGGGLVQAGGSLRLSCAASGRTFRLNGMGWYRQAPGKERELVAAITWSGGRTYYADSVKGRFTISRDNAKNTVYLQMNSLNPEDTAVYYCAAGKSSYGKPKYYYWGQGTQVTVSS", "polyreactivity (PSR sort gate)": "high polyreactivity"},
      {"sequence": "QLQLVESGGGLVQAGGSLRLSCAASGSIFADYAMGWYRQAPGKEREFVAAITRSGTSTYYADSVKGRFTISRDNAKNTVYFQMNSLKPEDTAGYYCAKTEVLLYLYTLDYWGQGTQVTVSS", "polyreactivity (PSR sort gate)": "low polyreactivity"},
      {"sequence": "QLQLVESGGGLVQAGGSLRLSCAASGSIFFGNVMGWYRQAPGKERELVAAINTDGRTYYADSVKGRFTISRDNAKNTVYLQMNSLKPEDTAVYYCAARKGYRYYYWGQGTQVTVSS", "polyreactivity (PSR sort gate)": "high polyreactivity"},
      {"sequence": "QLQLVESGGGLVQAGGSLRLSCAASGSIFNDTAMGSYRQAPGKDRELVAAISWNGGSTYYADSVKGRFTISRDNAKNTVYLQMNSLKPQDTAVYYCAVYARYWYLLHYRYGYWGQGTQVTVSS", "polyreactivity (PSR sort gate)": "low polyreactivity"},
      {"sequence": "QLQLVESGGGLVQAGGSLRLSCAASGSIFRGYAMGWYRQAPGKERELVAAISWSGGRTYYADSVKGRFTISRDYAKNTVYLQMNSLKPEDTSVFYCNAASLRYSYTLFDCWGQGTQVTVSS", "polyreactivity (PSR sort gate)": "high polyreactivity"},
      {"sequence": "QLQLVESGGGLVQAGGSLRLSCAASGSIFRINAMGWYRQEPGKESELVSAISTRSGRTYYADSVKVRFTISRDNSKNTVYLQMNSLKPEDTAVYYCARYRTQASGYGGYDYWGQGTQVTVSS", "polyreactivity (PSR sort gate)": "high polyreactivity"},
      {"sequence": "QLQLVESGGGLVQAGGSLRLSCAASGSIFSRYAMGWYIQAPGKEMELVAGITRGGSTNYADSVKGRFTLSRDNAKNTVYLHMNSLKPEDTAVYYCAKASRRFLTLGYDYWGQGTQVTVSS", "polyreactivity (PSR sort gate)": "high polyreactivity"},
      {"sequence": "QLQLVESGGGLVQAGGSLRLSCAASGSLFYVYAMGWYRAATGKERELVAAISDDGDTYYADSVKGRFTISRDHEKNTVYLQMNSLKPEDTEVYFCAAEGGANEENSSPEYDYWGLGTQVTVSS", "polyreactivity (PSR sort gate)": "low polyreactivity"},
      {"sequence": "QLQLVESGGGLVQAGGSLRLSCAASGSTFDYNAKGWYRQAPGKERELVAAITSTGGNTYYADSVKGRFTIARDNAKNSVYIQMNSLKQEDTAVYYCNKDVARYPYGKCDYWGQGTQVTVSS", "polyreactivity (PSR sort gate)": "low polyreactivity"},
      {"sequence": "QLQLVESGGGLVQAGGSLRLSCAASGSTFYTNAMGWYRQAPGKERELVAVITSRGGGTYYADSVKGRFTISRDNAKNTVYLQMNSLKPEDTAVYYCAAYPLVSWGRHGTKGDYWGQGTQVTVSS", "polyreactivity (PSR sort gate)": "low polyreactivity"},
      {"sequence": "QLQLVESGGGLVQAGGSLRLSCAASVRIFDVYAMGWYRQAPGKERELVAAITWDGGSTYYADSVKGRFTISRDNAKNTVYLQMNSLKPEDTAVYYCAAEPVYTQRKGYDYWGHGTQVTVSS", "polyreactivity (PSR sort gate)": "low polyreactivity"},
      {"sequence": "QLQLVESGGGLVQAGGSLRLSCADSASIFTCYAMGWDRQAPGKESELVARINVSAGITYYADSVMGRFTISRDNAKNPVYLQMNSLNPEDTAVYYCAATGLRRPKHNYWGQGPQVTVSS", "polyreactivity (PSR sort gate)": "low polyreactivity"},
      {"sequence": "QLQLVESGGGLVQAGGSLRLSCAPSGRIFAPYAMGWYIPAPVKERELVAAIRLSGGSTYYADSVKGRFTISRDNAKNTVYLKMNSLKPEDTEVYYCAARYPGVARFYYWGQATQVTVSS", "polyreactivity (PSR sort gate)": "high polyreactivity"},
      {"sequence": "QLQLVESGGGLVQAGGSLRLTCAASGSIFNDNAMGWYRPAPVKERELVAPINSDGSTYYADSVKGRFTISRDNAKNTVYLQMNSLKPEDTAVYYCNADTLLDNFTWDADGYDYWGQGTHVTVSS", "polyreactivity (PSR sort gate)": "low polyreactivity"},
      {"sequence": "QLQLVESGGRIVQAGGSLRLSCAASGITIRYYAMGWYRQAPGKERELVAAITRSGSTTYADSVKGRFTISRDNAKNTVYFQMNSLKPEDTAVYYCAVDFYYLTGGVDYWGQGTQVTVSS", "polyreactivity (PSR sort gate)": "low polyreactivity"},
      {"sequence": "QLQLVESGGVLVQAGGSLRLSCAASGLTFAYYAMGSYRQAPGKERELVAAISWNGGRTYYAYSVKGRFTISRDNAKNTVYLQMNSLKPEDTAVYYCATRFYRPRDGLYDYWGQGTQVTVSS", "polyreactivity (PSR sort gate)": "high polyreactivity"},
      {"sequence": "QLQLVESGPGLVQAGGSLRLSCAPSGSTFNRNAMGCYSQAPGKERELVAVISSGGSTYYADSVKGRFTISRDIAKNTVYLQMNSLKPEDTAVYYCAAGDPQKEDYWGQGTQVTVSS", "polyreactivity (PSR sort gate)": "low polyreactivity"},
      {"sequence": "QLQLVESLGGLFQAGGILRLSCAASGRTLRGYGNGWYRQAPAKEREFVAAISTRGGRTYYADSVKGRFTISRDNAKNTVYLQMKILKPEDTAVYYCAAAYEPGDYDSWGQGTQVTVSS", "polyreactivity (PSR sort gate)": "low polyreactivity"}
    ]}
  ]
}
